Measured values published in publication PMC11544074.

Target: GFP-pNLRC3-8xHis (Sus scrofa (pig), UniProt A0A287AW79 1-1066)
Test: MST

B1: HSV120 dsDNA (unlabelled) (dsDNA)
DNA 1: TAAGACACGATGCGATAAAATCTGTTTGTAAAATTTATTAAGGGTACAAATGCCCTAGCTAGACACGATGCGATAAAATCTGTTTGTAAAATTTATTAAGGGTACAAATTGCCCTAGC
DNA 2: GCTAGGGCAATTTGTACCCTTAATAAATTTTACAAACAGATTTTATCGCATCGTGTCTAGCTAGGGCATTTGTACCCTTAATAAATTTTACAAACAGATTTTATCGCATCGTGTCTTA
  Kd: 10.1 µM
